# Results published in the nanobody polyreactivity screen of Harvey et al. (2022).
# Experiment: yeast display, Sf9 membrane polyspecificity reagent, FACS + sequencing; frameworks hold sequencing errors
# Procedure, shortened: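 A nanobody's polyreactivity label depends on the gate it was sorted from. Yeast display cells were stained with 10% biotinylated, detergent-solubilized Sf9 membrane reagent for 1 hour at 4 °C, enriched on streptavidin microbeads and sorted by FACS. The low and high (top ~1%) gates were set on anti-HA fluorescence for expression and streptavidin fluorescence for reagent binding.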
row,Sequence,polyreactivity (PSR sort gate)
1,QVQLVESGGGLVQAGGSLRISCAASGSTFDYDDMRWYRQAPGKERELVASITSGGITDYADSVKGRFTISRDNAKNTVYLQMNSLTPEDTAVYYCNAARQYSRSAEGYLVWGYSWGQGTQVTVSS,low polyreactivity
2,QVQLVESGGGLVQAGGSLRLSCAASGSTFWVYTMGWYRQAPGKERALVAAINYSDGSTYYADSVKGRFTISRENAKNTVYLQMNSLKPEDTAVYYCAAGSDPTGRRYEYWGQGTQVTVSS,low polyreactivity
3,QVQLVESGGGLVQAGGSLRLSCAASGSIFDDYAMGWYRQAPGKERELVAAISWSGGRTYYADSVKGRFTISRDNAKNTVYLQMNSLKPEDTAVYYCAATTGVRSRRYYYWGQGTQVTVSS,low polyreactivity
4,QVQLVESGGGLVQAGGSLRLSCAASGIIFHLYAMGWYRPAPGKERELVAAISWNGSSTYYADSVKGRFTISRDNAKNTVYLQMNSLKPEDTAVYYCAASYGYFEDYGYWGQGTQVTVSS,low polyreactivity
5,QVQLVESGGCLVQAGGSLRLSCAASGRIFFLYAMGWYRQAPGKERELVAAITWSADGTYYADSVKGRFTISRDNAKNTVYLQMNSLKPEDTAVYYCNADAYTTASSYNWWYYYWGQGTQVTVSS,low polyreactivity
6,QVQHVESGGGLVQAGGSLRLSCSASGITFGYYAMGWYRQAPGKERELVAAIRSSGGSTYYADSVKGRFTISRDNAKNTVYLQMKSLKPEDTAVYYCNARYRKSSRPGYEPFERYYWGQGTQVTVSS,high polyreactivity
7,QVQLVESGGVLVQAGGSLRLSCAASGSTFSVNVMGWSRQAPGKERELVAAINSGGSTDYADSVKGRLTISRDNAKNTVYLQMNSLKPEYTAVYYCNAYDIVIYDYWGQGTQVTVSS,low polyreactivity
8,QVQLVESGGRLVQAGGSLRLSCAASGSTLYAYAMGWYRPAPGKERELVAAIRTGGSTYYADSVNGRFTISRDNAKNTVYLQMNSLKPEDTAVYYCAADHGYQYGYWGQGTQVTVSS,low polyreactivity
9,QDQLVESGGGLVQAGGSLRLSCAASGSIFLIYAMGGYRQAPGKERELVAAITWGGGSTYYADSVKGRFTISRDNAKNTVYLQMTSLKPVDTAVYYCAAYSYSSSFGYRYDYWGQGTQVTVSS,high polyreactivity
10,QVQLVESGGVLVQAGGSLRLSCAASGNIFDQNAMGWYRQAPGKERELVAAITRSGSTTYYADSVKGRFTISRDNAKNTVYLQMNSLNPEDTAVYYCAAKVYAYRTYKMYYWGQGTQVTVSS,high polyreactivity
11,QVQIVESGGGLVQAGGSLRLSCAASGRILEGYAMGWYRQAPGKERELVAAISFSTTTTYYADSVKGRFTISRDNAKNTVYLQMNSLKPEDTAVYYCAADSQQSDYDYWGQGTQVTVSS,high polyreactivity
12,QVQLVESGGGLVQAGGSLRLSCAASGSIFRYYAMGWYRQAPGKERELVARISSGGSTYYADSVKGRFTISRDNAKNTVYLQMNSLKPEDTAVYYCNAGAPARYWWEGDYWGQGTQVTVSS,high polyreactivity
13,QVQLVESGGGLGQAGGSLRLSCAASGSIFQGYTMRWYRQARGKARELVAAITRSVTSTYYADSVKGRFTISRDNAKNTVYLQMNCLKPEDTAVYYCAATAYYARYWYDYWGQGTQVTVSS,high polyreactivity
14,QVQLVESGGGLVQAGGSLRLSCASSGLIFPYNAMGWYRKAPGKERELVAAIDSGVTTYYADSVKGRFTISRDNAKNTVYLQMNSLKPEDTAVYYCAAVGLPGPEGDSWGQGTQVTVSS,low polyreactivity
15,QVQLVESGVGIVQAGGSLRLSCAASGSTFRAYVMGWYRQAPGKERELVAVISSGGSTKYADSVKGRFTISRDNAKNTDYVQMNSLKPVDTAVYYCAARRASRHRYYPFDYWGQGTQVTVSS,high polyreactivity
16,QVQLVESGGGLVQAGGSLRLSCAASGLTFFYYAMGWYRQAPGKERELVAGISRSGGSTYYADSVKGRFTISRDNAKNTVYLQMISLKPEDTAVYYCAKRTLVASYIYREGEYWGQGTQVTVSS,high polyreactivity
17,QVQLVESGGGLVQAGGSLRLSCAASGRTFSYYAMGWSRQAPGKERELVATIRFSGGGTYYADSVKGRFTISRDNAKNTVYLLMNSLKPEATAVYYCAALNYHKFAHKYDYWGQGTQVTVSS,low polyreactivity
18,QVQLVESGVGLVQAGGSLRLSCAASGSTFDFNAMGWYRPAPGKERELVAAITGSGGSTDYADSVKGRFTISRDNAKNTVYLQMNSLKPEDTAVYYCNAGKTIDYRDGVGYDHWGQGTQVTVSS,low polyreactivity
19,QVQLVESGGGLVQAGGSLRLSCAASGIIFKLYAMGWYRQAPGKEREFVATITKTGGRTYYADSVKGRFTISRDNAKNTVYLQMNSLKPEDTAVYYCAARRVNGKMYYWGQGTQVTVSS,high polyreactivity
20,QFQLVESGGGLVQAGGSLRLSCAASGRTFTYNAMGWYRQAPGKERELVAAINSGGSTNYADSVKGRFTISRDNAKNTVYLQMNSLKPEDTAVYYCNAGFGFGSSRYGTRYYYWGQGTQVTVSS,low polyreactivity
21,QVQLVDSGGGLVQAGGSLRLSCAASGSIFYVYAMGWYRQAPGKERELVAAISWTGGSTDYADSVKGRFTISRDNAKNTVYLHMNSLKPEDTAVYYCATELGYGDWYNYWGQGTQVTVSS,low polyreactivity
22,QVQLVESGGGLVQAGGSLRLSCAASGSTFVYNAMGGYSQAPGKERELGASISRGGGITYYADSVKGRFTISRDNAKNTVYLQMNSLKPEDTAVYYCAKTKGYRGHYYYWGQGTQVTVSS,high polyreactivity

row,Sequence,polyreactivity (PSR sort gate)
1,QVQLVESGGGLVQAGGSLRLSCAASGIWNMGWYRQAPGKERELVAAISWSGASTYYADSVKGRFTISRDNAKNTVYLQMNSLKPEDTAVYYCALGFWHTYGYWGQGTQVTVSS,high polyreactivity
2,QVQLEESGGGLVQAGGSLRLSCAATGLIFRTYAMGWYRQAPGKERELVAAISYSGGSTFYADSVNGRFTISRDNAKNTVYLQMNRLKPEDTAVYYCAADSRAKRYYWGQGTQVTVSS,high polyreactivity
3,QVQLVESGGGLVQAGGSLRLSCAASRITFYSYAMGWYRQAPGKERELVAAITFRGTSTYYADSVKGRFTISRDNAKNTVYLQMNSQKPEDTAVYYCAAYSGQARGYDYWGQGTQVTVSS,high polyreactivity
4,QVQLVESGGGLVQAGGSLRLSCAASGSTFYFYAMGWYRQAPGKEREFVARISNRDGSTYYADSVKGRFTISRDNAKNTVYLQMNSLKPEDTAVYYCAVKQRASHYPYYSWGQGTQVTVSS,high polyreactivity
5,QVQLVESGGGLVQAGGSLRLSCAASGFIFDYYAMGWYRQAPGKERELVAAISRGGSTYYADSVKGRFTISRDNAKNTVYLQMKSLKPEDTAVYYCKAMSYHFWEFDYWGQGTQVTVSS,high polyreactivity
6,QVQLVESGGGLVQAGGSLRLICAASGFIFTGYVMGWYRQEPGKERELVAAISSRGGSTYYADSVKGRFTISRDNAKNTVYLQMNSLKPEDTAVYYCAARYVYGSSYDYWGQGTQVTVSS,high polyreactivity
7,QVQLQESGGGLVQAGGSLRLSCAASGTITVLYKMGWFRLAPGKEREFVASINYGTSTYYADSVKGRFTVSRDSAKNTVYLQMNSLKPEDTAVYYCAAAYRWQDVYRYWGQGTQVTVSS,low polyreactivity
8,QVQLVESGGGLVQAGGSLRLSCAASGRIFRYYAMGWYRQEPGKERELVAVITRGTSTKYADSVKGRFTISRDNAKITVYLQMNSLKPEDTAVYYCAADYWYANVGFDYWGQGTQVTVSS,high polyreactivity
9,QVQLVESGGGLVQAGGSLRLSCAASGLIFTVYAMGWYRQAPGKERELVAAISGTGGSTYYADSVKGRFTISRDNAKNTVYLQMNSLIPEDTAVYYCAAVPIIRLATTSSSRGDYWGQGTQVTVSS,low polyreactivity
10,QVQLVESGGGLVQAGGSLRLSCAASGLIFYYYALAWYRQAPGKERELVAAITWTAGSTSYADSVKGRFTISRDNAKNTVYLQMNRLKPEDTAVYYCAADYRHDTFSNEYDYWGQGTQVTVSS,low polyreactivity
11,QVQLVESGGGLVQAGGSLRLSCAASGFIFKVNAMGWYRQAPGKERGYVYADSVKGRFTISRDNAKNTVYLQMNSLKPEHTAVYYCAAEPGEGCDYWGQATQVTVSS,low polyreactivity
12,QVQLVESGGGLVQAGGSLRLSCAASGRIFRVYAMGWYRQAPGKERELVAAISYSGGSTYYADSVKGRFTISRDNAKNTVYLQMNSLKPEDTAVYYCAAIRRSSKESKGTNPYEYWGQGTQVTVSS,high polyreactivity
13,QVQLVESGGLLVQAGGSIRLRCDASGIILRGYSLGWYRQAPGKERELVASISRGGSTNYADSVKGRFTISRDNAKTTVYLQMNSLKPEDTAVYSCNARGCNGRSDYDYWGLGTQVTVSS,high polyreactivity
14,QVQLVESGGGLVQAGGSLRLSCAASGITFRFNAMGWYRQAPGKEREFVAAITYSGDSTYYADSVKGRFTISRDNAKNTVYLQMNSLKPEDTAVYYCAADASSKLYDYWGQGTQVTVSS,low polyreactivity
15,QVQLQESGGGLVQAGGSLRLSCAASGNIFSSGVMGWYRQAPGKERELVATINVGANTNYADSVKGRFTISRDNAKNTVYLQMNRLKPEDTAVYYCAVDKGDDGSFYLWGQGTQVTVSS,high polyreactivity
16,QVKLVESGGCLVKAGGSLRLSCAATGRIFLYYAMGWYRQAPGKEMELVATITSGGRTNYADSVKGRFTISRDNAKNTVYLQMNSLKPVDTAVYNCARQSYGSYRRYGFSALYGYLGQGTQVTVSS,high polyreactivity
17,QVQLVESGGGLVQAGGSLRITCAASGSILFAKSMGWYRQAPGKERELVADIRGSGSTYYADSVKGRFTISRDNAKNTVYLQMNSLKPEDTAVYYCAKRHLISIPDYGRHEYYYWGQGTQVTVSS,low polyreactivity
18,QVQLVESGGGLVQAGGSLRLSCAASGRTFYSNTMGWYRQAPGKEREFVAAIPSIVGSTYYADSVKGRFTISRDNAKNTVYLQMNSLKPEDTAVYYCATRYVVIEYDYWGQGTQVTVSS,low polyreactivity
19,QVQLVESGGGLVQAGGSLRLSCAASGFTVHDYAMGWYRQAPGKERELVAAISFSGGRTYYADSVKGRFSISRDNAKNTVYLQMNSLKPEDTAVYYCNAKGQRIKRWRGYWGQGTQVTVSS,high polyreactivity
20,QVQLVESGGGLVQAGGSLRLSCAASGRILGQYVMGWYRQAPGKERELVASIRSGGVSTYYADSVKGRFTISRDNAKNTVYLQMNSLKPEDTAVYYCAKGSPGPRRYKFDYWGQGTQVTVSS,low polyreactivity
21,QVQLVESGGGLVQAGGSLRLSCAASGSTLDSYARGWYRQAPGTERELVAVIDTGGTTNYADSVKGRFTISRDNAKNTVYLQMNSLKPEDTAVYYCAADYAYYGYWFEGYDYWGQGTQVTVSS,low polyreactivity
